Assay results: patent publication US20050123977A1, “Assay and treatment” (Ludwig Institute for Cancer Research, priority 2003, published 2005)

Columns and labels:
p53Pro72 [1] = biological target: T1, p53Pro72 (Homo sapiens, UniProt P04637); assay: Transactivation assay (luciferase reporter), p53Pro72; format: cell-based; settings: Saos-2 cells; for transcriptional activity of p53Pro72 on Bax promoter: co-transfection
T1 construct: expressed in transfected cells; host or cells: Saos-2 or H1299 cells
Protocol: (§1) Saos-2 or H1299 cells (5×10^5) were plated 24 hours prior to transfection in 6 cm dishes. All transactivation assays contained 1 μg of reporter plasmid. 50 ng of p53Pro72 or p53Arg72, 4 μg of ASPP1 or ASPP2, 2 μg of iASPP expression plasmids were used as indicated. In FIG. 4C cells were also co-transfected with 3 μg of pSuper plasmid containing iASPP RNAi as indicated. Cells were lysed in Reporter Lysis Buffer 16-24 hours after transfection and assayed using the Luciferase Assay kit (Promega, Wis., USA). The fold activation of a particular reporter was determined by the activity of the transfected plasmid divided by the activity of vector alone.

p53Pro72 [2] = biological target: T1, p53Pro72; assay: Flow cytometry apoptosis assay, p53Pro72; format: cell-based
Protocol: Cells (10^6) were plated 24-48 hours prior to transfection in 10 cm plates. All cells were transfected with 2 μg of a plasmid expressing CD20 as a transfection marker. Transfection consisted of 1 μg of human p53Pro72 or p53Arg72, 10 μg of ASPP1 or ASPP2, 4 μg of iASPP and 8 μg of pSuper plasmid containing RNAi of iASPP as indicated. 36 hours after the transfection, both attached and floating cells were harvested and analysed as described.

p53Pro72 and p53Arg72 = settings: RKO cells heterozygous for p53Pro72/p53Arg72
Protocol: For western blotting, cells were lysed in either NP40 lysis buffer or luciferase reporter lysis buffer. Between 15-100 μg of protein extract was loaded on SDS-PAGE gels. For immunoprecipitation, cells were lysed in NP40 lysis buffer and pre-cleared with protein G beads for 1 hour at 4° C. The protein concentration was determined and then 1-2 mg of the extract was incubated with antibody pre-bound to protein G beads for 4 hours or overnight at 4° C. The beads were washed twice in NP40 lysis buffer and twice in NET buffer. The IP beads were mixed with 5× sample buffer and loaded onto an SDS-PAGE gel. The gels were wet transferred on to Protran nitrocellulose membrane and the resulting blots were first incubated with primary antibody and subsequently with the appropriate secondary HRP conjugated antibody (Dako). The blot was exposed to hyperfilm following the use of ECL substrate solution (Amersham Life Science).
p53Pro72, p53Arg72, ASPP1, ASPP2 and iASPP were in vitro translated and labelled with ^35S -Methionine using the TNT T7 Quick coupled Transcription/Translation System (Promega). The lysates containing indicated proteins were incubated at 30° C. for 1 hour. The anti-ASPP1, ASPP2 or iASPP antibodies immobilised on protein G agarose beads were added to the binding reactions and incubated on a rotating wheel at 4° C. for 16 hours. The beads were then washed with PBS. The bound proteins were released in SDS gel sample buffer and analysed by 10% SDS-polyacrylamide gel electrophoresis (PAGE). Results were visualised using autoradiography for ^35S -Methionine labelled proteins. For immunoprecipitation using cell lysates, the expression of endogenous ASPP1, ASPP2, iASPP, p53Pro72 and p53Arg72 were detected by western blot using antibodies specific to these proteins derived from different species from that used in IP.

p53Arg72 = biological target: T2, p53Arg72 (Homo sapiens, UniProt P04637, P72R); assay: Transactivation assay (luciferase reporter), p53Arg72; format: cell-based; settings: Saos-2 cells, Bax promoter, co-transfection
T2 construct: expressed in transfected cells; host or cells: Saos-2 or H1299 cells
Protocol: as §1

B1: iASPP: human iASPP protein (SEQ ID NO: 4), expressed from plasmid; inhibits apoptotic function of p53 (protein, listed as Homo sapiens)
chain: MWMKDPVARPLSPTRLQPALPPEAQSVPELEEVARVLAEIPRPLKRRGSMEQAPAVALPPTHKKQYQQIISRLFHRHGGPGPGGRSQSCPPSLRDLRPGQGPLLLPHQLPFHRPAPSQSSPPEQPQSMEMRSVLRKAGSPRKARRARLNPLVLLLDAALTGELEVVQQAVKEMNDPSQPNEEGITALHNAICGANYSIVDFLITAGANVNSPDSHGWTPLHCAASCNDTVICMALVQHGAAIFATTLSDGATAFEKCDPYREGYADCATYLADVEQSMGLMNSGAVYALWDYSAEFGDELSFREGESVTVLRRDGPEETDWWWAALHGQEGYVPRNYFGLFPRVKPQRSK
p53Pro72 [1]; promoter not stated in text (FIG. 2C)
  transactivation function of p53Pro72: selectively inhibited
p53Pro72 [2]; Saos-2 cells
  apoptotic function of p53Pro72: selectively inhibited
p53Pro72 and p53Arg72
  co-immunoprecipitation of p53Pro72 compared with p53Arg72: clearly larger

B2: ASPP1: human ASPP1 protein (SEQ ID NO: 7), V5-tagged, expressed from CMV-driven plasmid; stimulates apoptotic function of p53 (protein, listed as Homo sapiens)
chain: MMPMILTVFLSNNEQILTEVPITPETTCRDVVEFCKEPGEGSCHLAEVWRGNERPIPFDHMMYEHLQIWGPRREEVKFFLRHEDSPTENSEQGGRQTQEQRTQRNVINVPGDKRTEYGVGNPRVELTLSELQDMAARQQQQIENQQQMLVAKEQRLHFLKQQERRQQQSISENEKLQKLKERVEAQENKLKKIRAMRGQVDYSKIMNGNLSAEIERFSAMFQEKKQEVQTAILRVDQLSQQLEDLKKGKLNGFQSYNGKLTGPAAVELKRLYQELQIRNQLNQEQNSKLQQQKELLNKRNMEVAMMDKRISELRERLYGKKIQLNRVNGTSSPQSPLSTSGRVAAVGPYIQVPSAGSFPVLGDPIKPQSLSIASNAAHGRSKSANDGNWPTLKQNSSSSVKPVQVAGADWKDPSVEGSVKQGTVSSQPVPFSALGPTEKPGIEIGKVPPPIPGVGKQLPPSYGTYPSPTPLGPGSTSSLERRKEGSLPRPSAGLPSRQRPTLLPATGSTPQPGSSQQIQQRISVPPSPTYPPAGPPAFPAGDSKPELPLTVAIRPFLADKGSRPQSPRKGPQTVNSSSIYSMYLQQATPPKNYQPAAHSALNKSVKAVYGKPVLPSGSTSPSPLPFLHGSLSTGTPQPQPPSESTEKEPEQDGPAAPADGSTVESLPRPLSPTKLTPIVHSPLRYQSDADLEALRRKLANAPRPLKKRSSITEPEGPGGPNIQKLLYQRFNTLAGGMEGTPFYQPSPSQDFMGTLADVDNGNTNANGNLEELPPAQPTAPLPAEPAPSSDANDNELPSPEPEELICPQTTHQTAEPAEDNNNNVATVPTTEQIPSPVAEAPSPGEEQVPPAPLPPASHPPATSTNKRTNLKKPNSERTGHGLRVRFNPLALLLDASLEGEFDLVQRIIYEVEDPSKPNDEGITPLHNAVCAGHHHIVKFLLDFGVNVNAADSDGWTPLHCAASCNSVHLCKQLVESGAAIFASTISDIETAADKCEEMEEGYIQCSQFLYGVQEKLGVMNKGVAYALWDYEAQNSDELSFHEGDALTILRRKDESETEWWWARLGDREGYVPKNLLGLYPRIKPRQRTLA
modifications: V5 tag
notes: stimulates apoptotic function of p53
p53Pro72 [1]
  transcriptional activity of p53Pro72 on Bax promoter: significantly enhanced
p53Arg72
  transactivation function of p53Arg72: very little effect
p53Pro72 [2]; H1299 cells
  apoptotic function of p53Pro72: enhanced
p53Pro72 [2]; Saos-2 cells
  apoptotic function of p53Pro72: selectively enhance
p53Pro72 and p53Arg72
  co-immunoprecipitation of p53Pro72 compared with p53Arg72: to a lesser extent

B3: ASPP2: human ASPP2 protein (SEQ ID NO: 8), expressed from CMV-driven plasmid; stimulates apoptotic function of p53 (protein, listed as Homo sapiens)
chain: MMPMFLTVYLSNNEQHFTEVPVTPETICRDVVDLCKEPGESDCHLAEVWCGSERPVADNERMFDVLQRFGSQRNEVRFFLRHERPPGRDIVSGPRSQDPSLKRNGVKVPGEYRRKENGVNSPRMDLTLAELQEMASRQQQQIEAQQQLLATKEQRLKFLKQQDQRQQQQVAEQEKLKRLKEIAENQEAKLKKVRALKGHVEQKRLSNGKLVEEIEQMNNLFQQKQRELVLAVSKVEELTRQLEMLKNGRIDSHHDNQSAVAELDRLYKELQLRNKLNQEQNAKLQQQRECLNKRNSEVAVMDKRVNELRDRLWKKKAALQQKENLPVSSDGNLPQQAASAPSRVAAVGPYIQSSTMPRMPSRPELLVKPALPDGSLVIQASEGPMKIQTLPNMRSGAASQTKGSKIHPVGPDWSPSNADLFPSQGSASVPQSTGNALDQVDDGEVPLREKEKKVRPFSMFDAVDQSNAPPSFGTLRKNQSSEDILRDAQVANKNVAKVPPPVPTKPKQINLPYFGQTNQPPSDIKPDGSSQQLSTVVPSMGTKPKPAGQQPRVLLSPSIPSVGQDQTLSPGSKQESPPAAAVRPFTPQPSKDTLLPPFRKPQTVAASSIYSMYTQQQAPGKNFQQAVQSALTKTHTRGPHFSSVYGKPVIAAAQNQQQHPENIYSNSQGKPGSPEPETEPVSSVQENHENERIPRPLSPTKLLPFLSNPYRNQSDADLEALRKKLSNAPRPLKKRSSITEPEGPNGPNIQKLLYQRTTIAAMETISVPSYPSKSASVTASSESPVEIQNPYLHVEPEKEVVSLVPESLSPEDVGNASTENSDMPAPSPGLDYEPEGVPDNSPNLQNNPEEPNPEAPHVLDVYLEEYPPYPPPPYPSGEPEGPGEDSVSMRPPEITGQVSLPPGKRTNLRKTGSERIAHGMRVKFNPLALLLDSSLEGEFDLVQRIIYEVDDPSLPNDEGITALHNAVCAGHTEIVKFLVQFGVNVNAADSDGWTPLHCAASCNNVQVCKFLVESGAAVFAMTYSDMQTAADKCEEMEEGYTQCSQFLYGVQEKMGIMNKGVIYALWDYEPQNDDELPMKEGDCMTIIHREDEDEIEWWWARLNDKEGYVPRNLLGLYPRIKPRQRSLA
p53Pro72 [1]
  transcriptional activity of p53Pro72 on Bax promoter: significantly enhanced
p53Arg72
  transactivation function of p53Arg72: very little effect
p53Pro72 [2]; H1299 cells
  apoptotic function of p53Pro72: enhanced
p53Pro72 [2]; Saos-2 cells
  apoptotic function of p53Pro72: selectively enhance
p53Pro72 and p53Arg72
  co-immunoprecipitation of p53Pro72 compared with p53Arg72: Selective binding
